Assays:
Experiment in all cases: partitioning into condensates
PLPPR3 ICDΔ345 = PLPPR3 ICDΔ345 (UniProt Q7TPB0)
[1] = target: PLPPR3 ICDΔ345/Δ399 (double mutant) (UniProt Q7TPB0)
PLPPR3 ICDΔ399 = PLPPR3 ICDΔ399 (UniProt Q7TPB0)
[2] = target: PLPPR3 intracellular domain (ICD), purification construct HA-M1-PLPPR3 ICD-His (UniProt Q7TPB0)

- partition coefficient of G-actin into condensates, k actin (Cin/Cout) (PLPPR3 ICDΔ345): 15.2
- partition coefficient of G-actin into condensates, k actin (Cin/Cout) [1]: 11.8
- partition coefficient of G-actin into condensates, k actin (Cin/Cout) (PLPPR3 ICDΔ399): 11.8
- partition coefficient of G-actin into condensates, k actin (Cin/Cout) [2]: 15.4
Substance: alpha-actin (from UniProt P68032 1-377) (natural protein)

Source: article doi:10.1101/2025.10.09.681077
